Source: patent publication US20250250357A1 (NANJING ZAIMING PHARMACEUTICAL, published 2025)
Residue numbers refer to the chain shown, from its start.

B1: S009-F8-4.5 (antibody, human IgG1, kappa, V domains shown)
VH: QVQLQQPGAELVKPGASVKLSCKASGYTFTIYWMHWVKQRPGQGLEWIGMIHPNSGNTNYNEKFKSKATLTVDKSSSTAYMQLSSLTSEDSAVYYCSLIHWYFDVWGTGTTVTVSS
VL: QIVLTQSPAIMSASPGEKVTMTCSASSSVSYMYWYQQKPGSSPRLLIYDTSNLASGVPVRFSGSGSGTSYSLTISRMEAEDAATYYCQQWSSYPLTFGAGTKLELKR
notes: Human-murine chimeric antibody, human IgG1 heavy and kappa light constant regions
B2: S009-F8-13.8 (antibody, human IgG1, kappa, V domains shown)
VH: EFQLQQSGPELVKPGASVKISCKASGYSFTDYNMNWVKQTNGKSLEWIGIINPNYGTSSYNQKFKGKATLTVDQSSSTAYMQLNSLTSEDSAVYYCARVGRDNSGFDYWGQGTTLTVSS
VL: B1 VL with L95P, A99S, K102E, L105I
notes: as for B1
B3: S009-F8-12.13 (antibody, human IgG1, kappa, V domains shown)
VH: QVQLQQPGAELVKPGASVKLSCKASGYTFTSYWMHWVKQRPGQGLEWIGMIHPNSGSTNYNEKFKSKATLTVDKSSSTAYMQLSSLTSEDSAVYYCARRTPIITLVGHWYFDVWGTGTTVTVSS
VL: DIVMTQSHKFMSTSVGDRVSITCKASQDVGTAVAWYQQKPGQSPKLLIYWASTRHTGVPDRFTGSGSGTDFTLTISNVQSEDLADYFCQQYSSYPLTFGAGTKLELKR
notes: as for B1
B4: S009-F8-7.5 (antibody, human IgG1, kappa, V domains shown)
VH: DVQLQESGPGLVKPSQSLSLTCSVTGYSITSGYYWNWIRQFPGNKLEWMAYIRYDGSNNYNPSLKNRISIIRDTSKNQFFLRLNSVTTEDTATYYCAKSYYGMDDWGQGISVTVSS
VL: DIQMTQSPASLSASVGETVTITCRTSGDIHNYLAWYQQKQGKSPQLLVYKAKTLENGVPSRFTGSGSGTQFSLKIDSLQPEDFGTYYCQHFWTTPYTFGGGTKLEIKR
notes: as for B1
B5: S009-F8-5.15 (antibody, human IgG1, kappa, V domains shown)
VH: QVQLQQPGTELVKPGASVKLSCKASGYTFTSYWMHWVKQRPGQGLEWIGHSNPSNGGTNYNEKFKSKATLTVDKSSSTAYMQLSSLTSEDSAVYYCARWVRGSNYEYFDVWGTGTTVTVSS
VL: DIVMTQSQKFMSTTVGDRVSIICKASQNVGSAVAWCQQKPGQSPKLLIYSASNRYTGVPDRFTGSGSGTDFTLTISNMQSEDLADYFCQQYSSYPLTFAGGTKLEIKR
notes: as for B1
B6: S009-F8-8.22 (antibody, human IgG1, kappa, V domains shown)
VH: EVQLQQSGPELVKPGASVKMSCKASGYTFTDYIIHWVKQSHGKSLEWIAYIFPNNGGTGYNQKFRGKATLTVNKSSSTAYMELRSLTSEDSAVYYCARWRLRQYFDVWGTGTTVTVSS
VL: B5 VL with T14I, I22T, S31T, C36Y, A99G
notes: as for B1
B7: F7.44.20 (scFv, not shown: small tags and cut ends)
scFv: EVQLQQSGPELVKPGASVKIPCKASGYTFTDYNMDWVKQSHGKSLEWIGDINPSTGGTIYNQKFNGKATLTEDKSASTVYMEFRSLTSDDTAVYYCARRRIGTGYFDVWGTGTTVTVSSGGGGSGGGGSGGGGSQIVLTQSPALMSASPGEKVTLTCSASSSVISSYLSWYQQKPGSSPKLLIYRTSNLASGVPARFSGSGSGTSYSLTISSMEAEDAASYFCHQWSSFPYTFGGGTKLEIK
notes: also called S009-F7.44.20 (parental variable regions, in the humanized-antibody ELISA)
B8: F7.44.20-VL-VH (scFv, not shown: small tags and cut ends)
scFv: QIVLTQSPALMSASPGEKVTLTCSASSSVISSYLSWYQQKPGSSPKLLIYRTSNLASGVPARFSGSGSGTSYSLTISSMEAEDAASYFCHQWSSFPYTFGGGTKLEIKGGGGSGGGGSGGGGSEVQLQQSGPELVKPGASVKIPCKASGYTFTDYNMDWVKQSHGKSLEWIGDINPSTGGTIYNQKFNGKATLTEDKSASTVYMEFRSLTSDDTAVYYCARRRIGTGYFDVWGTGTTVTVSS
notes: also called S009-F7.44.20 parental variable regions, VL-VH order
B9: F7.44.20-H12 (scFv, not shown: small tags and cut ends)
scFv: EVQLVQSGAEVKKPGASVKVSCKASGYTFTDYNMDWVRQAPGQGLEWMGDINPSTGGTIYNQKFNGRVTMTEDKSASTVYMELSSLRSEDTAVYYCARRRIGTGYFDVWGQGTTVTVSSGGGGSGGGGSGGGGSEIVLTQSPATLSLSPGERATLSCSASSSVISSYLSWYQQKPGSSPRLLIYRTSNLASGIPARFSGSGSGTDYTLTISSLEPEDFAVYYCHQWSSFPYTFGGGTKVEIK
notes: also called S009-F7.44.20 humanized antibody VH2 + VL4
B10: F7.44.20-H15 (scFv, not shown: small tags and cut ends)
scFv: B9 scFv with N65S, S177Q
notes: also called S009-F7.44.20 humanized antibody VH2a + VL3
B11: F7.44.20-H16 (scFv, not shown: small tags and cut ends)
scFv: B9 scFv with N65S
notes: also called S009-F7.44.20 humanized antibody VH2a + VL4

molecular target: T1, human MSLN-FL-his protein (human, UniProt Q13421 296-580); experiment: ELISA on coated antigen, antibody 1 nM
T1 construct: Made in HEK293E cells, purified on nickel column; it is put last here; also called human MSLN full-length protein; hMSLN-FL-his; not shown: His tag
T1 sequence (Q13421 other isoform, or with tags, fused parts or gaps): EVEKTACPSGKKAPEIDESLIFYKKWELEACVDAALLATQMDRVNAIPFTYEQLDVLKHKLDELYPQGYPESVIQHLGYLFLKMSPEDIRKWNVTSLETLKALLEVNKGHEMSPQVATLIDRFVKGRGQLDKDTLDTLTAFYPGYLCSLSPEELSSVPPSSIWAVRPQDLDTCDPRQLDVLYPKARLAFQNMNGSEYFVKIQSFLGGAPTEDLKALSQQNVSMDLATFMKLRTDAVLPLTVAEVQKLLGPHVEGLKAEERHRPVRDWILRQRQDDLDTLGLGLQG

OD450	Binder
2.8 OD	B1
2.05 OD	B2
2.42 OD	B3
2.55 OD	B4
2.51 OD	B5
2.75 OD	B6

molecular target: T2, human MSLN-hFc protein (Acro, Cat. No. MSN-H5253) (human, UniProt Q13421 296-580); experiment: ELISA on coated antigen, antibody 1 nM
T2 construct: the method names the coated protein as human MSLN-hFc (Acro); also called human MSLN full-length protein
T2 sequence (Q13421 other isoform, or with tags, fused parts or gaps limits assumed): as the sequence (Q13421 other isoform, or with tags, fused parts or gaps) above, with P14R counted along it

OD450	Binder
0.83 OD450	B7
1.06 OD450	B8
1.02 OD450	B9
1.24 OD450	B10
1.12 OD450	B11

molecular target: T3, human MSLN-R3 protein (human, UniProt Q13421 487-598); experiment: ELISA on coated antigen, antibody 1 nM
T3 construct: also called hMSLN-R3
T3 sequence (Q13421 495-606, form in doubt): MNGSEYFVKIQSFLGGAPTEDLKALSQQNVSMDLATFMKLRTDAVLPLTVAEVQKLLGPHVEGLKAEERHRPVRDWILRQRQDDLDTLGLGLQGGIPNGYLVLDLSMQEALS

OD450	Binder
0.39 OD450	B7
0.55 OD450	B8
0.6 OD450	B9
0.77 OD450	B10
0.72 OD450	B11

molecular target: T1, human MSLN-FL-his protein; experiment: ELISA on coated antigen, antibody 10 nM

OD450	Binder
2.79 OD	B1
2.34 OD	B2
2.53 OD	B3
2.73 OD	B4
2.75 OD	B5
3.15 OD	B6

molecular target: T2, human MSLN-hFc protein (Acro, Cat. No. …); experiment: ELISA on coated antigen, antibody 10 nM

OD450	Binder
2.48 OD450	B7
2.14 OD450	B8
2.92 OD450	B9
2.78 OD450	B10
2.4 OD450	B11

molecular target: T3, human MSLN-R3 protein; experiment: ELISA on coated antigen, antibody 10 nM

OD450	Binder
1.68 OD450	B7
1.68 OD450	B8
2.12 OD450	B9
1.85 OD450	B10
1.6 OD450	B11

molecular target: T1, human MSLN-FL-his protein; experiment: ELISA on coated antigen, antibody 0.1 nM

OD450	Binder
1.31 OD	B1
1.18 OD	B2
2.22 OD	B3
1.88 OD	B4
1.53 OD	B5
1.97 OD	B6

molecular target: T1, human MSLN-FL-his protein; experiment: ELISA on coated antigen, antibody 100 nM

OD450	Binder
2.94 OD	B1
2.69 OD	B2
2.94 OD	B3
3.22 OD	B4
3.16 OD	B5
3.15 OD	B6

molecular target: T2, human MSLN-hFc protein (Acro, Cat. No. …); experiment: ELISA on coated antigen, antibody 0.1 nM

OD450	Binder
0.22 OD450	B7
0.11 OD450	B8
0.16 OD450	B9
0.19 OD450	B10
0.16 OD450	B11

molecular target: T2, human MSLN-hFc protein (Acro, Cat. No. …); experiment: ELISA on coated antigen, antibody 100 nM

OD450	Binder
2.97 OD450	B7
2.98 OD450	B8
3.17 OD450	B9
3.26 OD450	B10
2.97 OD450	B11

molecular target: T3, human MSLN-R3 protein; experiment: ELISA on coated antigen, antibody 0.1 nM

OD450	Binder
0.07 OD450	B7
0.08 OD450	B8
0.09 OD450	B9
0.11 OD450	B10
0.1 OD450	B11

molecular target: T3, human MSLN-R3 protein; experiment: ELISA on coated antigen, antibody 100 nM

OD450	Binder
1.96 OD450	B7
1.8 OD450	B8
2.44 OD450	B9
1.86 OD450	B10
1.8 OD450	B11

molecular target: T1, human MSLN-FL-his protein; experiment: ELISA on coated antigen, antibody 0.01 nM

OD450	Binder
0.18 OD	B1
0.24 OD	B2
1.26 OD	B3
0.49 OD	B4
0.34 OD	B5
0.91 OD	B6

molecular target: T2, human MSLN-hFc protein (Acro, Cat. No. …); experiment: ELISA on coated antigen, antibody 0.01 nM

OD450	Binder
0.05 OD450	B7
0.05 OD450	B8
0.06 OD450	B9
0.06 OD450	B10
0.05 OD450	B11

molecular target: T3, human MSLN-R3 protein; experiment: ELISA on coated antigen, antibody 0.01 nM

OD450	Binder
0.04 OD450	B7
0.05 OD450	B8
0.05 OD450	B9
0.04 OD450	B10
0.06 OD450	B11

molecular target: T1, human MSLN-FL-his protein; experiment: ELISA on coated antigen, antibody 0.001 nM

OD450	Binder
0.1 OD	B1
0.07 OD	B2
0.49 OD	B3
0.12 OD	B4
0.08 OD	B5
0.23 OD	B6

molecular target: T2, human MSLN-hFc protein (Acro, Cat. No. …); experiment: ELISA on coated antigen, antibody 0.001 nM

OD450	Binder
0.17 OD450	B7
0.2 OD450	B8
0.05 OD450	B9
0.05 OD450	B10
0.05 OD450	B11

molecular target: T3, human MSLN-R3 protein; experiment: ELISA on coated antigen, antibody 0.001 nM

OD450	Binder
0.04 OD450	B7
0.04 OD450	B8
0.05 OD450	B9
0.04 OD450	B10
0.04 OD450	B11

molecular target: T1, human MSLN-FL-his protein; experiment: ELISA on coated antigen, antibody 0.0001 nM

OD450	Binder
0.07 OD	B1
0.05 OD	B2
0.32 OD	B3
0.06 OD	B4
0.05 OD	B5
0.1 OD	B6

molecular target: T2, human MSLN-hFc protein (Acro, Cat. No. …); experiment: ELISA on coated antigen, antibody 0.0001 nM

OD450	Binder
0.04 OD450	B7
0.04 OD450	B8
0.05 OD450	B9
0.05 OD450	B10
0.05 OD450	B11

molecular target: T3, human MSLN-R3 protein; experiment: ELISA on coated antigen, antibody 0.0001 nM

OD450	Binder
0.04 OD450	B7
0.05 OD450	B8
0.05 OD450	B9
0.05 OD450	B10
0.04 OD450	B11

molecular target: T1, human MSLN-FL-his protein; experiment: ELISA on coated antigen, no antibody (blank, column 'none')

OD450	Binder
0.06 OD	B1
0.05 OD	B2
0.05 OD	B3
0.05 OD	B4
0.05 OD	B5
0.05 OD	B6
